In patent publication US20230193226A1, “BUTYRYLCHOLI[…] AN ENHANCED ABILITY TO HYDROLYZE ACYL GHRELIN” (priority 2014, published 2023):

Experiments:
BChE = target: T1, BChE (Mus musculus, UniProt Q03311, A228S/A357W/S256A/S316G/Y361G); assay: Selective BChE inhibition by iso-OMPA in vector-treated mice; type: in vivo; settings: AAV-mBChE mut mice, iso-OMPA 40 mg kg^-1, 6 hours fast
T1 construct: expressed in transfected cells; host or cells: C57bl/6 mice after AAV-mBChE mut gene transfer; activity measured in serum/plasma
Method: FIGS. 6A-6B. […] All mice were then fasted for 6 hours, and serum samples were collected to determine (6A) BChE activity versus the reference substrate (BTCh) and (6B) the levels of acyl ghrelin.

human acyl-ghrelin = assay: Deacylation of human acyl ghrelin by purified human BChE; type: biochemical
Method: FIGS. 3A-3D. […] (3B) One ng of human acyl-ghrelin was treated with different amount of human BChE. After 20 hours of incubation, residual acyl ghrelin and desacyl ghrelin in each reaction were determined. (3C) One ng of human acyl ghrelin was treated with 10 µg of human BChE and % decrease in residual acyl ghrelin was measured as a function of time. […] The hydrolysis activities with butyrylthiocholine (BTCh) or acyl-ghrelin as substrates were determined by Ellman assay and acyl-ghrelin immunoassay, respectively. Data are normalized to the no inhibitor controls. All values are means ± SD, each with duplicate samples (n=3).
A sample of purified human BChE was obtained from Dr. O. Lockridge and assessed by gel electrophoresis (FIG. 3A).

human ghrelin = assay: In vitro enzyme screening: ghrelin hydrolyzing activity of purified mutant BChE (ghrelin immunoassay); type: biochemical; settings: purified enzyme from HEK293 supernatant
[1] = 1 ng human acyl-ghrelin, increasing amounts of human BChE, 20 hours

In the case of `CC(C)NP(=O)(NC(C)C)OP(=O)(NC(C)C)NC(C)C` [iso-OMPA], the “BTCh hydrolysis activity of plasma” value (BChE) is reported as “abolished” and the “level of acyl ghrelin in plasma” value (BChE) is reported as “equivalent to the level observed in AAV-Luc-treated control mice”.

B1: human BChE (protein, listed as Homo sapiens)
chain: MHSKVTIICIRFLFWFLLLCMLIGKSHTEDDIIIATKNGKVRGMNLTVFGGTVTAFLGIPYAQPPLGRLRFKKPQSLTKWSDIWNATKYANSCCQNIDQSFPGFHGSEMWNPNTDLSEDCLYLNVWIPAPKPKNATVLIWIYGGGFQTGTSSLHVYDGKFLARVERVIVVSMNYRVGALGFLALPGNPEAPGNMGLFDQQLALQWVQKNIAAFGGNPKSVTLFGESAGAASVSLHLLSPGSHSLFTRAILQSGSFNAPWAVTSLYEARNRTLNLAKLTGCSRENETEIIKCLRNKDPQEILLNEAFVVPYGTPLSVNFGPTVDGDFLTDMPDILLELGQFKKTQILVGVNKDEGTAFLVYGAPGFSKDNNSIITRKEFQEGLKIFFPGVSEFGKESILFHYTDWVDDQRPENYREALGDVVGDYNFICPALEFTKKFSEWGNNAFFYYFEHRSSKLPWPEWMGVMHGYEIEFVFGLPLERRDNYTKAEEILSRSIVKRWANFAKYGNPNETQNNSTSWPVFKSTEQKYLTLNTESTRIMTKLRAQQCRFWTSFFPKVLEMTGNIDEAEWEWKAGFHRWNNYMMDWKNQFNDYTSKKESCVGL
With B1 the “acyl ghrelin hydrolysis rate as a function of time” value (human acyl-ghrelin; 1 ng human acyl ghrelin, 10 µg human BChE) was “linear hydrolysis rate”, the “amount of acyl ghrelin” value (human acyl-ghrelin; [1]) was “decrease in the amount of acyl ghrelin” and the “amount of desacyl ghrelin” value (human acyl-ghrelin; [1]) was “increase in the amount of the breakdown product, desacyl ghrelin”.

B2: A199S/S227A/S287G/A328W/Y332G (protein)
chain: EEDFIITTKTGRVRGLSMPVLGGTVTAFLGIPYAQPPLGSLRFKKPQPLNKWPDIHNATQYANSCYQNIDQAFPGFQGSEMWNPNTNLSEDCLYLNVWIPVPKPKNATVMVWIYGGGFQTGTSSLPVYDGKFLARVERVIVVSMNYRVGALGFLAFPGNPDAPGNMGLFDQQLALQWVQRNIAAFGGNPKSITIFGESSGAASVSLHLLCPQSYPLFTRAILESGSANAPWAVKHPEEARNRTLTLAKFTGCSKENEMEMIKCLRSKDPQEILRNERFVLPSDSILGINFGPTVDGDFLTDMPHTLLQLGKVKKAQILVGVNKDEGTWFLVGGAPGFSKDNDSLITRKEFQEGLNMYFPGVSRLGKEAVLFYYVDWLGEQSPEVYRDALDDVIGDYNIICPALEFTKKFAELENNAFFYFFEHRSSKLPWPEWMGVMHGYEIEFVFGLPLGRRVNYTRAEEIFSRSIMKTWANFAKYGHPNGTQGNSTMWPVFTSTEQKYLTLNTEKSKIYSKLRAPQCQFWRLFFPKVLEMTGDIDETEQEWKAGFHRWSNYMMDWQNQFNDYTSKKESCTAL
With B2 the “ghrelin hydrolyzing activity in vitro” value (human ghrelin) was “enhanced activity” and the “ghrelin hydrolyzing activity relative to wild type mouse BChE” value (human ghrelin) was “at least 20 fold”.

B3: A199S/F227A/S287G/A328W/Y332G (protein)
chain: EDDIIIATKNGKVRGMNLTVFGGTVTAFLGIPYAQPPLGRLRFKKPQSLTKWSDIWNATKYANSCCQNIDQSFPGFHGSEMWNPNTDLSEDCLYLNVWIPAPKPKNATVLIWIYGGGFQTGTSSLHVYDGKFLARVERVIVVSMNYRVGALGFLALPGNPEAPGNMGLFDQQLALQWVQKNIAAFGGNPKSVTLFGESSGAASVSLHLLSPGSHSLFTRAILQSGSANAPWAVTSLYEARNRTLNLAKLTGCSRENETEIIKCLRNKDPQEILLNEAFVVPYGTPLGVNFGPTVDGDFLTDMPDILLELGQFKKTQILVGVNKDEGTWFLVGGAPGFSKDNNSIITRKEFQEGLKIFFPGVSEFGKESILFHYTDWVDDQRPENYREALGDVVGDYNFICPALEFTKKFSEWGNNAFFYYFEHRSSKLPWPEWMGVMHGYEIEFVFGLPLERRDNYTKAEEILSRSIVKRWANFAKYGNPNETQNNSTSWPVFKSTEQKYLTLNTESTRIMTKLRAQQCRFWTSFFPKVLEMTGNIDEAEWEWKAGFHRWNNYMMDWKNQFNDYTSKKESCVGL
For B3, the “ghrelin hydrolyzing activity in vitro” value (human ghrelin) was “modest activity, comparable to that of wild type human BChE”.
